Paper PMC5666004

Columns and labels:
[1] = biological target: Htt-N20-GB1 (N-terminal 20-residue fragment of Htt with GB1 fused at the C terminus) (UniProt P42858); assay: NMR titration; 15N-labelled Htt-N20-GB1 or mutants (50 μM) titrated with HSP90 constructs or HSP70; [1H,15N] HSQC peak intensities; 20 mM phosphate, 50 mM NaCl, pH 6.5, 25 °C
[2] = biological target: Htt-N20^S13P-GB1 (UniProt P42858); assay: as above
[3] = biological target: HSP90-MC (residues 236–696) (UniProt P07900); assay: SEC; Superdex-200 Increase 10/300 GL, ~100 μM protein loaded; 20 mM phosphate, 50 mM NaCl, pH 6.5; apparent molecular weights from calibration with standard proteins

Substance	average relative peak intensity of the Htt-N20 moiety at a 1:1 ratio [1]	average relative peak intensity of the Htt-N20 moiety at a 1:1 ratio [2]	stoichiometry N [3]
HSP90(1–696) (from UniProt P07900 1-696) (domain or fragment)	0.59	0.86	–
HSP90-MC (residues 236–696) (from UniProt P07900 236-696) (domain or fragment)	–	–	2
